Test results from paper PMC9352680, “A comprehensive thermodynamic model for RNA binding by the Saccharomyces cerevisiae Pumilio protein PUF4”.

T1: PUF4 RNA-binding domain (Saccharomyces cerevisiae, UniProt P25339 537-888)
T1 sequence: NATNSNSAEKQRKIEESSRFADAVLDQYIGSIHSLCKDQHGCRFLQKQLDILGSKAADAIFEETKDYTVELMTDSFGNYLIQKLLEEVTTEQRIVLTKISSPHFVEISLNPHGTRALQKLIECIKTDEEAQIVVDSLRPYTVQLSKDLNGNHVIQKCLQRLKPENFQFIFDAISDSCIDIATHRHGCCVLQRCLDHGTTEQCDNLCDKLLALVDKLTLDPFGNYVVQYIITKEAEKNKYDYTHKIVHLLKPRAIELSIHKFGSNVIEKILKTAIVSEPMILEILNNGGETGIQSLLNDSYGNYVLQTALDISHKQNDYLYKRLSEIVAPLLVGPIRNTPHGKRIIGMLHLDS


target: T1, PUF4 RNA-binding domain; test: Mg; RNA-MaP; 20 mM Na-HEPES pH 7.4, 30 mM KOAc, 0.75 mM MgCl2, 0.1% Tween-20, 5% glycerol, 0.1 mg/mL BSA, 2 mM DTT; 25 C; 0.0125-409.6 nM protein; conditions: tags: N-His6-TEV cleaved; C-SNAP kept, Cy3B-labelled; label: tethered on chip by stalled RNA polymerase

Binder	Kd [nM]
UCUCUUGGUAUUUAUCUCUU (ssRNA) [Ib_S1_P3E.1_K3.1_C3.1_H3.1_[T1G]_A3.1_[A6T]_F3.1_T3.1]	> 2300
UCUCUUGGUACAUAUCUCUU (ssRNA) [Ib_S1_P3E.1_K3.1_C3.1_H3.1_[T1G]_A3.1_[T5C]_F3.1_T3.1]	1550
UCUCUUUGUAUCGAUGUCUCUU (ssRNA) [Ic_S1_P5E.1_K5.1_C5.1_H5.1_A5.1_[T6C]_[A7G]_F5.1_[T8A]_[A10G]_T5.1]	859
UCUCUUUGUAUCUUCCUCUCUU (ssRNA) [Ic_S1_P5E.1_K5.1_C5.1_H5.1_A5.1_[T6C]_[A7T]_F5.1_[T9C]_[A10C]_T5.1]	74.7
UCUCUUUGUAUAUAAUUCUCUU (ssRNA) [Ic_S1_P5E.1_K5.1_C5.1_H5.1_A5.1_[T6A]_[A7T]_F5.1_[T8A]_[T9A]_[A10T]_T5.1]	4.21
UCUCUUCGUAUGUAUCUCUU (ssRNA) [Ib_S1_P3E.1_K3.1_C3.1_H3.1_[T1C]_A3.1_[A6G]_F3.1_T3.1]	932
UCUCUUUGUAUCCAGCUCUCUU (ssRNA) [Ic_S1_P5E.1_K5.1_C5.1_H5.1_A5.1_[T6C]_[A7C]_F5.1_[T8A]_[T9G]_[A10C]_T5.1]	1300
UCUCUUCGUACAUAUCUCUU (ssRNA) [Ib_S1_P3E.1_K3.1_C3.1_H3.1_[T1C]_A3.1_[T5C]_F3.1_T3.1]	1050
UCUCUUUGUAGCUACGUCUCUU (ssRNA) [Ic_S1_P5E.1_K5.1_C5.1_H5.1_A5.1_[T5G]_[T6C]_[A7T]_F5.1_[T8A]_[T9C]_[A10G]_T5.1]	> 2300
UCUCUUUGUAAAUCCCUCUCUU (ssRNA) [Ic_S1_P5E.1_K5.1_C5.1_H5.1_A5.1_[T5A]_[T6A]_[A7T]_F5.1_[T8C]_[T9C]_[A10C]_T5.1]	240
UCUCUUUGUAUCGCUGUCUCUU (ssRNA) [Ic_S1_P5E.1_K5.1_C5.1_H5.1_A5.1_[T6C]_[A7G]_F5.1_[T8C]_[A10G]_T5.1]	978
UCUCUUUGUAUGUUUCUCUCUU (ssRNA) [Ic_S1_P5E.1_K5.1_C5.1_H5.1_A5.1_[T6G]_[A7T]_F5.1_[A10C]_T5.1]	47
UCUCUUUGUACUUCCCUCUCUU (ssRNA) [Ic_S1_P5E.1_K5.1_C5.1_H5.1_A5.1_[T5C]_[A7T]_F5.1_[T8C]_[T9C]_[A10C]_T5.1]	782
UCUCUUUGUAUCUCGAUCUCUU (ssRNA) [Ic_S1_P5E.1_K5.1_C5.1_H5.1_A5.1_[T6C]_[A7T]_F5.1_[T8C]_[T9G]_T5.1]	463
UCUCUUUGUAACGGCCUCUCUU (ssRNA) [Ic_S1_P5E.1_K5.1_C5.1_H5.1_A5.1_[T5A]_[T6C]_[A7G]_F5.1_[T8G]_[T9C]_[A10C]_T5.1]	> 2300
UCUCUUUGUAGCCUCAUCUCUU (ssRNA) [Ic_S1_P5E.1_K5.1_C5.1_H5.1_A5.1_[T5G]_[T6C]_[A7C]_F5.1_[T9C]_T5.1]	721

Binder	Kd [nM]
UCUCUUUGUACUGUAAUCUCUU (ssRNA) [Ic_S1_P5E.1_K5.1_C5.1_H5.1_A5.1_[T5C]_[A7G]_F5.1_[T9A]_T5.1]	7.89
UCUCUUUGUACAAUAGUCUCUU (ssRNA) [Ic_S1_P5E.1_K5.1_C5.1_H5.1_A5.1_[T5C]_[T6A]_F5.1_[T9A]_[A10G]_T5.1]	0.742
UCUCUUUGUACCUAUUUCUCUU (ssRNA) [Ic_S1_P5E.1_K5.1_C5.1_H5.1_A5.1_[T5C]_[T6C]_[A7T]_F5.1_[T8A]_[A10T]_T5.1]	48.7
UCUCUUUGUAUAUACGUCUCUU (ssRNA) [Ic_S1_P5E.1_K5.1_C5.1_H5.1_A5.1_[T6A]_[A7T]_F5.1_[T8A]_[T9C]_[A10G]_T5.1]	14.9
UCUCUUUGUAUCCCGCUCUCUU (ssRNA) [Ic_S1_P5E.1_K5.1_C5.1_H5.1_A5.1_[T6C]_[A7C]_F5.1_[T8C]_[T9G]_[A10C]_T5.1]	1690
UCUCUUUGUAUCCAUUUCUCUU (ssRNA) [Ic_S1_P5E.1_K5.1_C5.1_H5.1_A5.1_[T6C]_[A7C]_F5.1_[T8A]_[A10T]_T5.1]	119
UCUCUUUGUAGUUUAUUCUCUU (ssRNA) [Ic_S1_P5E.1_K5.1_C5.1_H5.1_A5.1_[T5G]_[A7T]_F5.1_[T9A]_[A10T]_T5.1]	15.2
UCUCUUUGUAACCCGAUCUCUU (ssRNA) [Ic_S1_P5E.1_K5.1_C5.1_H5.1_A5.1_[T5A]_[T6C]_[A7C]_F5.1_[T8C]_[T9G]_T5.1]	1950
UCUCUUUGUACCAGCGUCUCUU (ssRNA) [Ic_S1_P5E.1_K5.1_C5.1_H5.1_A5.1_[T5C]_[T6C]_F5.1_[T8G]_[T9C]_[A10G]_T5.1]	1180
UCUCUUUGUAUGUACCUCUCUU (ssRNA) [Ic_S1_P5E.1_K5.1_C5.1_H5.1_A5.1_[T6G]_[A7T]_F5.1_[T8A]_[T9C]_[A10C]_T5.1]	93.8
UCUCUUUGUAAUGGUUUCUCUU (ssRNA) [Ic_S1_P5E.1_K5.1_C5.1_H5.1_A5.1_[T5A]_[A7G]_F5.1_[T8G]_[A10T]_T5.1]	1060
UCUCUUUGUAUACGGCUCUCUU (ssRNA) [Ic_S1_P5E.1_K5.1_C5.1_H5.1_A5.1_[T6A]_[A7C]_F5.1_[T8G]_[T9G]_[A10C]_T5.1]	460
UCUCUUUGUAUCAAUGUCUCUU (ssRNA) [Ic_S1_P5E.1_K5.1_C5.1_H5.1_A5.1_[T6C]_F5.1_[T8A]_[A10G]_T5.1]	354
UCUCUUUGUAUGACCCUCUCUU (ssRNA) [Ic_S1_P5E.1_K5.1_C5.1_H5.1_A5.1_[T6G]_F5.1_[T8C]_[T9C]_[A10C]_T5.1]	2180
UCUCUUUGUACUCAUUUCUCUU (ssRNA) [Ic_S1_P5E.1_K5.1_C5.1_H5.1_A5.1_[T5C]_[A7C]_F5.1_[T8A]_[A10T]_T5.1]	119
UCUCUUUGUAUCCUAUUCUCUU (ssRNA) [Ic_S1_P5E.1_K5.1_C5.1_H5.1_A5.1_[T6C]_[A7C]_F5.1_[T9A]_[A10T]_T5.1]	5.11
